Experimental data as given in article PMC5588548, “Suramin Inhibits Osteoarthritic Cartilage Degradation by Increasing Extracellular Levels of Chondroprotective Tissue Inhibitor of Metalloproteinases 3” (Molecular Pharmacology, 2017).

System: HTB94 chondrosarcoma cells
Assay type: cell-based
Method: Cells (HTB94 chondrosarcoma cells, primary porcine chondrocytes, or human osteoarthritic chondrocytes) were plated overnight (6 × 10^5 cells per well of a 12-well plate) in DMEM containing 10% FCS and washed three times in serum-free DMEM.
To evaluate endocytosis of exogenously added TIMP-3, cells were incubated with recombinant TIMP-3 (1 nM in 1.5 ml DMEM with 0.1% FCS) for 0–24 hours. Conditioned media were concentrated by precipitation with trichloroacetic acid [5% (v/v), 4°C, 18 hours]. After centrifugation (13,000 rpm, 4°C, 10 minutes), protein-containing pellets were resuspended in SDS sample buffer (30 µl), electrophoresed (7 µl) on a 10% polyacrylamide gel, and immunoblotted onto polyvinylidene fluoride. After blocking in 5% (m/v) BSA in Tris-buffered saline, TIMP-3 levels were analyzed using an M2 anti-FLAG antibody (Sigma-Aldrich), an alkaline phosphatase–conjugated anti-mouse secondary antibody (Promega, Southampton, UK), and a Western Blue stabilized substrate for alkaline phosphatase (Promega). Immunoblots were analyzed by densitometry using Phoretix 1D densitometry software (TotalLab, Newcastle-upon-Tyne, UK), and TIMP-3 remaining in the medium (mean ± S.D., n = 3) was calculated relative to pixel volume at a t of 0 hours (defined as 100%).

B1: TIMP-3: C-terminally FLAG-tagged human TIMP-3 expressed in human embryonic kidney 293 cells; endogenous metalloproteinase inhibitor (protein, UniProt P35625 24-211, looked up)
Metalloproteinase inhibitor 3: CTCSPSHPQDAFCNSDIVIRAKVVGKKLVKEGPFGTLVYTIKQMKMYRGFTKMPHVQYIHTEASESLCGLKLEVNKYQYLLTGRVYDGKMYTGLCNFVERWDQLTLSQRKGLNYRYHLGCNCKIKSCYYLPCFVTSKNECLWTDMLSNFGYPGYQSKHYACIRQKGGYCSWYRGWAPPDKSIINATDP
modifications: C-terminal FLAG tag
With B1 the “half-life of TIMP-3 uptake from the medium” value was 4.0 ± 1.3 h.
